Test results published in US20090239795A1.

target: rat GLP-1 receptor (rat) (UniProt P32301); test: cell-based or functional assay

Point of comparison: “GLP-1(7-37,A8G,K34A) (PEAPTD)2 (SEQ ID NO: 5) mTf fusion protein (from UniProt P01275 98-128) (ligand)”, Potency (nM), cAMP accumulation in CHO-GLP-1R cells 1.3 nM. Against it:
- Exendin-4(1-30) (PEAPTD)2 mTf fusion protein (ligand) — 1.5-fold lower, 0.85 nM
- Exendin-4(1-31) (PEAPTD)2 mTf fusion protein (ligand) — 3.9-fold lower, 0.33 nM
